Experimental data from US20160039903A1 (Stanford University, published 2016).
Read-outs that look alike come from different tables or passages of the source.

T1: human PD-L2 displayed on yeast (residues 20-123) (human; S. cerevisiae, UniProt Q9BQ51 20-123)
T1 construct: also called yeast displaying hPD-L2; ectodomain of hPD-L2; not shown: Aga2 of S. cerevisiae (pYAL vector); linker and tag between not g
T1 sequence: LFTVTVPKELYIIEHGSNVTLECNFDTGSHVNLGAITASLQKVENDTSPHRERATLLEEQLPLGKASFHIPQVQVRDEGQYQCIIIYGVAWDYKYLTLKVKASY


What was measured:
human PD-L1 on cells [1] = target: T2, human PD-L1 on cells (human, UniProt Q9NZQ7 19-290); experiment: flow cytometry of a dissociated CT26 hPD-L1 positive tumor 4 h after intraperitoneal injection of both labeled agents; same quadrant of the PD-L1 negative tumor: 3.97 [panel CT26, hPD-L1 positive]
T2 construct: also called hPD-L1; PD-L1 on IFNγ-induced SK-MEL-28 (SKMEL28) cells
T2 sequence (Q9NZQ7 19-290 limits assumed): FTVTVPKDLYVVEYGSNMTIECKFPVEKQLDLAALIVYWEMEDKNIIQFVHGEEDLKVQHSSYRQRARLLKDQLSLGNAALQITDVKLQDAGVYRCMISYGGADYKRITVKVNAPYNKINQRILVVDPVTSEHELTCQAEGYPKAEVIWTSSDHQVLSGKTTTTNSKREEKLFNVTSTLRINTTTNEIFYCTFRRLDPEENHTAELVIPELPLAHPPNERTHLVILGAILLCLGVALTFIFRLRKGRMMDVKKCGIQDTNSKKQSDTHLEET

human PD-L1 on cells [2] = target: T2, human PD-L1 on cells; experiment: competition flow cytometry on IFNγ-induced SK-MEL-28 cells, 100 nM labeled PD-1 tetramer as competitor
[3] = target: T3, recombinant biotinylated human PD-L1 ectodomain (IgV and IgC domains, residues 19-239) (human, UniProt Q9NZQ7 19-239, enzymatically biotinylated (BirA) on the biotin acceptor peptide); experiment: surface plasmon resonance, biotinylated hPD-L1 immobilized on a streptavidin chip; column head 'PD-L1 affinity'
T3 construct: also called biotinylated hPD-L1; biotinylated PD-L1; not shown: carboxy-terminal 8x histidine tag
T3 sequence (Q9NZQ7 other isoform, or with tags, fused parts or gaps): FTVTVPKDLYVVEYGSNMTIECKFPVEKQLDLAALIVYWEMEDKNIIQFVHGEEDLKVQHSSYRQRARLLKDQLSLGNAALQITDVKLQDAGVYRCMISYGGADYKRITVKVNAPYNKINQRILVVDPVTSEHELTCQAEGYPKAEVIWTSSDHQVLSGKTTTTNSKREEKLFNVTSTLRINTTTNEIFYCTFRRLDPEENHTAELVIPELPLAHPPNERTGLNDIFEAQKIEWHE

[4] = target: T3, recombinant biotinylated human PD-L1 …; experiment: as above; remark: listed apart in the source
[5] = target: T3, recombinant biotinylated human PD-L1 …; experiment: SPR, biotinylated PD-L1 on streptavidin chip
[6] = target: T1, human PD-L2 displayed on yeast …; experiment: competition flow cytometry on yeast displaying the ectodomain of hPD-L2, 100 nM PD-1 tetramer as competitor; wild-type PD-1 on yeast displaying hPD-L2
[7] = target: T4, mouse PD-L1 on B16-F10 cells (mouse, UniProt Q9EP73 19-290); experiment: competition flow cytometry on murine B16-F10 cells, 100 nM PD-1 tetramer as competitor; wild-type hPD-1 on murine B16-F10 cells
T4 construct: whole, on cells; also called mPD-L1; PD-L1 on murine B16-F10 cells
T4 sequence (Q9EP73 19-290): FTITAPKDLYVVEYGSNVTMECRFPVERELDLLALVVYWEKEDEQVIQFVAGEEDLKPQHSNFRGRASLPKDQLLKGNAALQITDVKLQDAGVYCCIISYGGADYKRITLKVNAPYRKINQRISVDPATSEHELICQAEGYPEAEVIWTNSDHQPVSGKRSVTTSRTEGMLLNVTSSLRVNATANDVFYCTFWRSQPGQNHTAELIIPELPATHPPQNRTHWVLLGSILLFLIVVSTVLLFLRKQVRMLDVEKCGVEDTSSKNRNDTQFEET

[8] = target: T1, human PD-L2 displayed on yeast …; experiment: competition flow cytometry on yeast displaying human PD-L2; competitor probe: labeled native PD-1 streptavidin tetramer
[9] = target: T5, human PD-L1 displayed on yeast (residues 19-132) (human; S. cerevisiae, UniProt Q9NZQ7 19-132); experiment: competition flow cytometry on yeast displaying human PD-L1; competitor probe: labeled native PD-1 streptavidin tetramer
T5 construct: also called yeast displaying human PD-L1; not shown: Aga2 of S. cerevisiae (pYAL vector); linker and tag between not g
T5 sequence (Q9NZQ7 19-132 limits assumed): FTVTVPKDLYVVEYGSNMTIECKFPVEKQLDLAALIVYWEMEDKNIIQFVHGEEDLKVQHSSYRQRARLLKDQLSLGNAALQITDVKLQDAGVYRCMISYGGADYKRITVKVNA

Molecule | Kd [3] | Kd [4] | other results
AlexaFluor 488-conjugated anti-hPD-L1 antibody (clone 29E.2A3, BioLegend) |  |  | percent of cells in the quadrant HAC 594 negative, Anti-hPD-L1 488 positive (human PD-L1 on cells [1]): 2.22%
wild-type human PD-1 IgV domain (residues 26-147), native PD-1 mimic polypeptide (receptor, Soluble monomer secreted from High Five insect cells; also called wild-type hPD-1; WT PD-1 monomer) DSPDRPWNPPTFSPALLVVTEGDNATFTCSFSNTSESFVLNWYRMSPSNQTDKLAAFPEDRSQPGQDCRFRVTQLPNGRDFHMSVVRARRNDSGTYLCGAISLAPKAQIKESLRAELRVTERHHHHHHHH | 3880 nM | 3880 nM | IC50 (human PD-L1 on cells [2]): 8200 nM; dissociation half-life [5]: < 1 s; IC50 [6]: 2500 nM; IC50 [7]: 2600 nM
G2 4-1 (Generation 2, clone 4-1) (designed binder) DSPDRPWNPPTFSPALLVVTEGDNATFTCSFSNTSESFHVVWHRESPSGQTDTLAAFPEDRSQPGPDARFRVTQLPNGRDFHLSVVRARRNDSGTYVCGAISLAPKIQIKESLRAELRVTERHHHHHHHH | 0.267 nM | 0.267 nM | binding result [8]: no binding (tested: 1e-6 M (Log[Inhibitor (M)] = -6))
G2 4-2 (designed binder) DSPDRPWNPPTFSPALLVVTEGDNATFTCSFSNTSESFHIIWHRESPSGQTDTLAAFPEDRSQPGQDARFRVTQLPNGRDFHLSVVRARRNDSGTYVCGVISLAPKIQIKESLRAELRVTERHHHHHHHH | 0.222 nM | 0.222 nM | binding result [8]: no binding (tested: 1e-6 M (Log[Inhibitor (M)] = -6))
G1 4-1 (designed binder, also called Generation 1, clone 4-1) PD-1 variant IgV domain: DSPDRPWNPPTFSPALLVVTEGDNATFTCSFSNTSESFRLVWHRESPGYETDTLASFPEDRSTPLPDCRFRVTQLPNGRDFHMSVVRARRNDSGTYVCGAIAFHPVIQIKESLRAELRVTER | 7.78 nM | 7.78 nM | IC50 (read off the curve) [9]: ~100 nM
G1 4-4 (designed binder, also called Generation 1, clone 4-4) PD-1 variant IgV domain: DSPDRPWNPPTFSPALLVVTEGDNATFTCSFSNTSESFRLVWHRESPNNHAYTLALFPEDRSLPFPDCRFRVTQLPNGRDFHMSVVRARRNDSGTYICGAITFDPRIQIKESLRAELRVTER | 10.7 nM | 10.7 nM | IC50 (read off the curve) [9]: ~100 nM
G2 4-12 (designed binder, also called Generation 2, clone 4-12) PD-1 variant IgV domain: DSPDRPWNPPTFSPALLVVTEGDNATFTCSFSNTSESFHVVWHYESPSGQTDTLAAFPEDRSQPGQDARFRVTQLPNGRDFHLSVVRARRNDSGTYVCGIISLAPKIQIKESLRAELRVTER | 0.218 nM | 0.218 nM | 
G2 4-5 (designed binder, also called Generation 2, clone 4-5) PD-1 variant IgV domain: DSPDRPWNPPTFSPALLVVTEGDNATFTCSFSNTSESFHVVWHRESPSSQTDTLAAFPEDRSQPGPDARFRVTQLPNGRDFQLSVVRARRNDSGTYVCGVISLAPKIQIKESLRAELRVTER | 0.196 nM | 0.196 nM | 
